# Source: patent publication US20070274969A1 (published 2007)
# B1: T antigen deletion mutant dl89-97 (other)
# chain: MDKVLNREESLQLMDLLGLERSAWGNIPLMRKAYLKKCKEFHPDKGGDEEKMKKMNTLYKKMEDGVKYAHQPDFGGFWDATEIPTYGTFNEENLFCSEEMPSSDDEATADSQHSTPPKKKRKVEDPKDFPSELLSFLSHAVFSNRTLACFAIYTTKEKAALLYKKIMEKYSVTFISRHNSYNHNILFFLTPHRHRVSAINNYAQKLCTFSFLICKGVNKEYLMYSALTRDPFSVIEESLPGGLKEHDFNPEEAEETKQVSWKLVTEYAMETKCDDVLLLLGMYLEFQYSFEMCLKCIKKEQPSHYKYHEKYYANAAIFADSKNQKTICQQAVDTVLAKKRVDSLQLTREQMLTNRFNDLLDRMDIMFGSTGSADIEEWMAGVAWLHCLLPKMDSVVYDFLKCMVYNIPKKRYWLFKGPIDSGKTTLAAALLELCGGKALNVNLPLDRLNFELGVAIDQFLVVFEDVKGTGGESRDLPSGQGINNLDNLRDYLDGSVKVNLEKKHLNKRTQIFPPGIVTMNEYSVPKTLQARFVKQIDFRPKDYLKHCLERSEFLLEKRIIQSGIALLLMLIWYRPVAEFAQSIQSRIVEWKERLDKEFSLSVYQKMKFNVAMGIGVLDWLRNSDDDDEDSQENADKNEDGGEKNMEDSGHETGIDSQSQGSFQAPQSSQSVHDHNQPYHICRGFTCFKKPPTPPPEPET
# B2: human Bub1, endogenous (enzyme)
# chain: MDTPENVLQMLEAHMQSYKGNDPLGEWERYIQWVEENFPENKEYLITLLEHLMKEFLDKKKYHNDPRFISYCLKFAEYNSDLHQFFEFLYNHGIGTLSSPLYIAWAGHLEAQGELQHASAVLQRGIQNQAEPREFLQQQYRLFQTRLTETHLPAQARTSEPLHNVQVLNQMITSKSNPGNNMACISKNQGSELSGVISSACDKESNMERRVITISKSEYSVHSSLASKVDVEQVVMYCKEKLIRGESEFSFEELRAQKYNQRRKHEQWVNEDRHYMKRKEANAFEEQLLKQKMDELHKKLHQVVETSHEDLPASQERSEVNPARMGPSVGSQQELRAPCLPVTYQQTPVNMEKNPREAPPVVPPLANAISAALVSPATSQSIAPPVPLKAQTVTDSMFAVASKDAGCVNKSTHEFKPQSGAEIKEGCETHKVANTSSFHTTPNTSLGMVQATPSKVQPSPTVHTKEALGFIMNMFQAPTLPDISDDKDEWQSLDQNEDAFEAQFQKNVRSSGAWGVNKIISSLSSAFHVFEDGNKENYGLPQPKNKPTGARTFGERSVSRLPSKPKEEVPHAEEFLDDSTVWGIRCNKTLAPSPKSPGDFTSAAQLASTPFHKLPVESVHILEDKENVVAKQCTQATLDSCEENMVVPSRDGKFSPIQEKSPKQALSSHMYSASLLRLSQPAAGGVLTCEAELGVEACRLTDTDAAIAEDPPDAIAGLQAEWMQMSSLGTVDAPNFIVGNPWDDKLIFKLLSGLSKPVSSYPNTFEWQCKLPAIKPKTEFQLGSKLVYVHHLLGEGAFAQVYEATQGDLNDAKNKQKFVLKVQKPANPWEFYIGTQLMERLKPSMQHMFMKFYSAHLFQNGSVLVGELYSYGTLLNAINLYKNTPEKVMPQGLVISFAMRMLYMIEQVHDCEIIHGDIKPDNFILGNGFLEQDDEDDLSAGLALIDLGQSIDMKLFPKGTIFTAKCETSGFQCVEMLSNKPWNYQIDYFGVAATVYCMLFGTYMKVKNEGGECKPEGLFRRLPHLDMWNEFFHVMLNIPDCHHLPSLDLLRQKLKKVFQQHYTNKIRALRNRLIVLLLECKRSRK
# notes: mature; also called hBub1; Bub1 (U2OS cells)
# B3: mouse Bub1, endogenous (enzyme)
# chain: MDNLENVFRMFEAHMQSYTGNDPLGEWESFIKWVEENFPDNKEYLMTLLEHLMKEFLHKKNYHNDSRFINYCLKFAEYNSDRHQFFEFLYNQGIGTKSSYIYMSWAGHLEAQGELQHASAIFQTGIHNEAEPKELLQQQYRLFQARLTGIHLPAQATTSEPLHSAQILNQVMMTNSSPEKNSACVPKSQGSECSGVASSTCDEKSNMEQRVIMISKSECSVSSSVAPKPEAQQVMYCKEKLIRGDSEFSFEELRAQKYNQRKKHEQWVSEDRNYMKRKEANAFEEQLLKQKMDELHKKLHQVVELSHKDLPASENRPDVSLVCVGQNTCSQQELRGPSLSSISHQTSESSGEKPQEEPSVPLMVNAVNSTLLFPAANLPALPVPVSGQSLTDSRCVNQSVHEFMPQCGPETKEVCETNKVASINDFHTTPNTSLGMVQGTPCKVQPSPTVHTKEALGFIMDMFQAPTLPDISDDKDEWPSLDQNEDAFEAQFQKNAVSSGDWGVKKIMTLSSAFPIFEDGNKENYGLPQPKNKPLGARTFGERSLSKYSSRSNEMPHTDEFMDDSTVCGIRCNKTLAPSPKSIGDFTSAAQLSSTPFHKFPADLVQIPEDKENVVATQYTHMALDSCKENIVDLSKGRKLGPIQEKISASLPCPSQPATGGLFTQEAVFGLEAFKCTGIDHATVEDLSDANAGLQVECVQTLGNVNAPSFTVENPWDDELILKLLSGLSKPVTSYSNTFEWQSKLPAIKTKTEYQLGSLLVYVNHLLGEGAFAQVFEAIHGDVRNAKSEQKCILKVQRPANSWEFYIGMQLMERLKPEVHHMFIKFYSAHLFKNGSILVGELYSYGTLLNVINLYKNTSEKVMPQALVLTFAIRMLYMVEQVHSCEIIHGDIKPDNFILGHRFLEQADEDLATGLALIDLGQSIDMKLFPKGTVFTGKCETSGFQCPEMLSNKPWNYQIDYFGVAATIYCMLFGSYMKVKNEGGVWKPEGLFRRLPHLDMWEEFFHIMLNIPDCHNLPSLDFLRQNMKKLLEQQYSNKIKTLRNRLIVMLSEYKRSRK
# notes: mature; also called mBub1; Bub1 (NIH3T3 cells)
# Experiments:
# human Bub1, endogenous = biological target: B2; assay: co-immunoprecipitation from U2OS stable lines
# [1] = biological target: T1, SV40 large T antigen, wild-type (SV40, UniProt P03070 1-708); assay: co-immunoprecipitation from U2OS/T cell lysates
# T1 construct: also called wild-type T antigen; T Ag
# T antigen mutant D44N = biological target: T2, T antigen mutant D44N (SV40, UniProt P03070 1-708); assay: co-immunoprecipitation from U2OS stable lines
# T2 construct: Defective DnaJ domain
# [2] = biological target: T1, SV40 large T antigen, wild-type; assay: co-immunoprecipitation from NIH3T3/T cell lysates
binder,measurement,setting,value
B1,binding result,"human Bub1, endogenous",no binding
B2,binding result,[1],binds
same,binding result,T antigen mutant D44N,binds
B3,binding result,[2],binds
